This test deals with HDAC5 protein (Abcam, MA, USA). The experiment in a line: SPR, Biacore T200; HDAC5 amine-coupled to CM5 chip, peptide as analyte, 1:1 model. In general terms: SPR reads the build-up and loss of mass on a sensor chip optically.
HDAC5 protein (Abcam, MA, USA), sequence (chain, as listed by the source): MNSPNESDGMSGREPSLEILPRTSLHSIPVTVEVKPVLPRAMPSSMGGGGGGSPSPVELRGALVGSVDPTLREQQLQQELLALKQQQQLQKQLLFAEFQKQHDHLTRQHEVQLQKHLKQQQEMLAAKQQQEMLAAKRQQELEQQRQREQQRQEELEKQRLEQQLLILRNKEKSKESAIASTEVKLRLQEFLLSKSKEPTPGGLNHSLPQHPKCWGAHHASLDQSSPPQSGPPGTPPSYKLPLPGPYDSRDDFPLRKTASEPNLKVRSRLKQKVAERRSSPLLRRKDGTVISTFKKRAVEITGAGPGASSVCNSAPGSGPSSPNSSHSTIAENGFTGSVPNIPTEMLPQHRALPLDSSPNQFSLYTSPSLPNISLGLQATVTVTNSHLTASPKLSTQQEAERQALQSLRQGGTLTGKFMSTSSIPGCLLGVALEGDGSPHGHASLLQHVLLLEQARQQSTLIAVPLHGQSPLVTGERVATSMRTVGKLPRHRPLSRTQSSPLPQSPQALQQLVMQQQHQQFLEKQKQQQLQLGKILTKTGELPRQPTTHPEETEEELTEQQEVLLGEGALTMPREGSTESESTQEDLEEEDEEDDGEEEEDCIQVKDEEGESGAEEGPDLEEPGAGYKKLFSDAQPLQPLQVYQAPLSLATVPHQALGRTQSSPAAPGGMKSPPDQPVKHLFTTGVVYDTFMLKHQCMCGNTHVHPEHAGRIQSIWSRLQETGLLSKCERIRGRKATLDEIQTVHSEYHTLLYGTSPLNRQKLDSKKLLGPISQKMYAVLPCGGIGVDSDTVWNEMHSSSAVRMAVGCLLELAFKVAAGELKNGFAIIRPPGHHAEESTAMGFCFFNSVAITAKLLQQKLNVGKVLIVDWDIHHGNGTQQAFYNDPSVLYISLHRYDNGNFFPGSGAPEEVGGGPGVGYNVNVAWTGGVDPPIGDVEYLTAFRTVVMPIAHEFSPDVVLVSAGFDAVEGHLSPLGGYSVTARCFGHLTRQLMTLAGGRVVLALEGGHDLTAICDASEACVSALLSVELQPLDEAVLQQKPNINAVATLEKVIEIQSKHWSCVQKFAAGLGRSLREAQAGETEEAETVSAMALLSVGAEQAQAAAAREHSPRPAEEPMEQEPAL

For the molecule GKCSTRGRKCMRRKK [peptide of SEQ ID NO: 2 (M1)], the Kd – broadly, the equilibrium constant for the complex coming apart – was determined as 924 nM; the koff (commonly the rate constant with which the complex falls apart) is 0.0687 s⁻¹; the kon – broadly, the rate constant with which the complex forms – amounted to 74400 M⁻¹ s⁻¹.
GKMSTRGRKCCRRKK [peptide of SEQ ID NO: 5 (M4)] came in with a Kd of 468 nM, a koff of 0.0309 s⁻¹ and a kon of 65900 M⁻¹ s⁻¹.
For GKCSTRGRKMCRRKK [peptide of SEQ ID NO: 3 (M2)], the Kd turned out to be 725 nM, the koff was 0.0595 s⁻¹ and the kon was found to be 82100 M⁻¹ s⁻¹.
The corresponding values for GKCSTRGRKMMRRKK [peptide of SEQ ID NO: 4 (M3)] are 940 nM, 0.0679 s⁻¹ and 72200 M⁻¹ s⁻¹.
In the case of GKMSTRGRKMMRRKK [peptide of SEQ ID NO: 8 (M7)], the Kd was 86.8 nM, the koff came to 0.00478 s⁻¹ and the kon was 55000 M⁻¹ s⁻¹.
Molecule GKMSTRGRKMCRRKK [peptide of SEQ ID NO: 6 (M5)] registered a Kd of 444 nM, a koff of 0.0446 s⁻¹ and a kon of 100000 M⁻¹ s⁻¹.
The matching figures for GKCSTRGRKCCRRKK (also called AIP) [peptide of SEQ ID NO: 1]: 676 nM, 0.0726 s⁻¹ and 108000 M⁻¹ s⁻¹.
The matching figures for GKMSTRGRKCMRRKK [peptide of SEQ ID NO: 7 (M6)]: 704 nM, 0.0476 s⁻¹ and 67500 M⁻¹ s⁻¹.

The values are drawn from US20240166688A1 (NIBEC, published 2024).
